Source: article PMC3477023, “Microbial β-glucosidases from cow rumen metagenome enhance the saccharification of lignocellulose in combination with commercial cellulase cocktail” (Biotechnology for Biofuels, 2012)

B1: SRF2g18 (uncultured bacterium SRF2) (protein)
chain: MRKSIHQISLVILAVVAMCGYSLRMKAQQLKAENIDEVVKAMTLEEKCHMVLGRGMHFNDEAKFPGTAGSTFSIARLGVPETYCADSQQGLRMNATRAWDHNDYYPTDFVASMTLASTWDREAAFKVGQGIGNEVREFGLDWILSPAMNLIRNPLCGRNHEYYSEDPYLSGTIAAGYVNGVQSEGTAACPKHFVANNQETNRNNNVSQVSQRALREIYLKAFEIMVKESNPWTIMTSYNKLNGPYAVQNHDLLTTIVRNEWGWKGMYVSDWNAGDDAVAAMLAGNDMLQPGQDKQYQAILEAAQSGKLPMEVIDANVKRILEYVVKTHNFKGYKYNNEPDLKAHAKVVREVGADGIVLLKNSGVLPLVGKRVALFGCTSYDWISGGSGFGGTSVGHYTVSLIEGMRSVGYEIYKPLIAAYTQHIAAEEKRLFPNGRPAFSLMPPARADEKQFTADELNAAIEGSDVAIISLGRKSGEAADRSESDFYLKDGEAQLIKAVSDAYHAKGKQVVVLLDICSPIDVASWQNQVDALVCTWQGGQESGFSVADVLSGKVNPSGKLPMTFQIKYGDAYADKNFPANVDDKTLGAMFMWGYDKDNTPKERQLQANIDFTNYEEDIYVGYRYFDSFSKPVAYPFGFGLSYTTFAYENLSVSETDGVFTVKVDVKNTGNKAGRNVVELFVAAPNSKQLNKPEKELRNYAKTSLLKPGQTETVIMLVKTEDLASFNEKASAWKTDAGVYTFMICSSANQIEVQTSAKVKAWTKKVNNVMKPKLKLNLLKR
notes: gene 2343 bp (780 residues calculated), full ORF from ATG with native signal region in pET-41 Ek/LIC, E. coli BL21(DE3), Ni-NTA, tags removed by enterokinase
B2: LAB20g4 (uncultured bacterium LAB20) (protein)
chain: MKKIMLLSATVLALAGCKGDPQLGKDSVDKVLKAMTLEEKVHFVIGTGMAGFGGESAVVGATKNIVPGAAGTTYPIERLGIPSIVLADGPAGLRIDPTREGDENTYYCTHFPIGTLLASTWNQELVESVGKAMGEEVHEYGADVYLAPALNIHRHPLNGRNFEYYSEDPVVAGKTAAAYVRGVQSNDVGTSIKHFAYNNQETNRTGNNAVISPRAQREIYLKGFEITVKESDPWTVMSSYNKINGTYTSQSRDLITTVLRDEWGFKGLVMTDWFGGDNGAEQIAAGNDMLQPGTDLQYQQIMDAIKDGSLSEDELNICVRRCLELVARSPKAKGYAYSNKPDLKAHAAVTRQSALEGMVLLENNGVLPLKDVKNVAVFGCTSFDFIAGGTGSGNVNRAYTVSLLDGLKNAGFNVDESNKEATLKHIADEDAAFKASLTDQLSAFYPTPRPSELVPSAAELAASARANDVAIITFGRNSGEFFDRTSADFSLSAKEKELLAKVTAAFHAKGKKVVVVLNVGGVIETASWKSVPDAILLAWQAGQEGGNSVTDILTGAKSPSGKLPMTFPVNLMDHASSANFPIDSDTGVYFTNRREDVGQKDVDVTKYEEGIYVGYRWFDKQNLPVSYPFGYGLSYTTFEYSAPAVANDGKTVTAKVTVKNTGSVAGKEAVQLYVSAPAGTLDKPVKELKAYGKTKELAPGESQELTLTFPTSELASFDEEASAWKVDAGTYTFQFGASSRDVRCTATAEAAASETPANRVLLMK
notes: gene 2295 bp (764 residues calculated), full ORF from ATG with native signal region in pET-41 Ek/LIC, E. coli BL21(DE3), Ni-NTA, tags removed by enterokinase
B3: LAB25g2 (uncultured bacterium LAB25) (protein)
chain: MKKLLTICFVATTFGMTMNAQPKLSADNIDEVLKAMTLEEKAKLLVGGANNFFSANAVVGGEATLVAGAAGTTPEIARLGIPATVLTDGPAGVRINPTRRGTDQTFYATAFPIGSCLASTWNTELVGQVGQAIGNETKEYRCDVILGPGMNLHRNPLCGRNFEYYSEDPFLTGKIAAAYINGVQKEDVGVSAKHFAVNSQETDRTSVDERLSQRAAREIYLRGFEIAVRESNPWTIMASYNIINGTHAMGNRDLLTSILRDDWGYKGIVMTDWIGIRQGLTTISEVQAGNDLMEPGQPAQVQEIIDGVKNGKLAIADVDRNVRRMLEYIVKTPSFRKYPASNKPDFTAHAAITRQSANEGIVLLKNNGTLPWKNIKSVALFGENSYDFLSGGTGSGCVHPPYVVDMLEGLKNAGIKSSETLTDIYRKYIAYARVKFQAERHPAKWFQTEAMGQQKYPEISLSPIAVEKEVRGADAAIITIGRQAGEGIDRDIETEFNLIPEERQLIFDVCQAFHAAGKPVVVIINSGSVIETASWSGYPDAILCAWQPGMEGGNSIADLLTGKVNPSGKLTMTWPIAATDHASTKNFPGALDDYSLMQMLGNGQPIPGHAYTNHEEDIYVGYRFFDTFKRDVAYPFGYGLSYTTFEYSKPVVKAKGQTVEVSITVKNSGSVSGKEVAQVYVAAPKGRLEKPAQELKAFAKTRELQPGESQTLTMTIPVRNLASFDEANSQWLTEAGTYTFRIGANSRDIRCTAEAKLAEYTEQTSNALAPKQKLNLLKQ
notes: gene 2340 bp (779 residues calculated), full ORF from ATG with native signal region in pET-41 Ek/LIC, E. coli BL21(DE3), Ni-NTA, tags removed by enterokinase
B4: SRF2g14 (uncultured bacterium SRF2) (protein)
chain: MKKTLFFAFGMATLMMGCTSADKVTKNTLNQEEVMNRLSLEDKAHFVIGVGMAGFSGDDAVIGATKNLVPGAAGTTYPLDSLGIPAVVLADGPAGLRIDATREGDSATYYCTHFPIGTLLASTWNQKLVEEVGQAIGEEVKEYGADVLLAPALNIMRNPLCGRNFEYYSEDPVVAGKTASAYITGVQKNDVGTSIKHFAANNQETNRMNTDAHISQRALREIYLKGFEIAIKESKPWTVMTSYNYINGVYTSESKDLVQTILRDEWGYEGTVMTDWFGGKDGAKQMWAGNDMLQPGKAEQFDSIVAGVKSGKLDEADLDRNIQRILNLVEKSPRFQGYQYSNKPDLKAHAAVTRQSAAEGMVLMKNNEVLPLKENVKNVALYGCTSYDFIAGGTGSGNVNHAYVVSLLDGLKNGGYNVSDELKSAYEKYIADCKEARKKEIEEMAKKDKQAAMLARFMPGTLPAEKQFSSEELAKQADASDLAVITIGRISGEFLDRKAADFNLNDSEMKLIQQVCEVYHKVGKQVVVLLNIGGVIETASWKELPDAILCAWQAGQEGGNSVVDVLSGKQSPSGKFTMTWPVKFTDAYSSKNFPIDEDPKIDMMNQGQKGNVKNVDYADYEEDIYVGYRYFDSFDVPVSYPFGFGLSYTTFEYSDAKISQKNDIYDVTVTVKNTGKFEGKEVVELYISAPDNKAANKPSKELKAFAKTRSLKPGESETLTLSVTAPELASFDEAASAWVVAEGEYQFLVGASSQDIKATLTANAKSFQIKVNDVMKPQVQMNLLKR
notes: gene 2361 bp (786 residues calculated), full ORF from ATG with native signal region in pET-41 Ek/LIC, E. coli BL21(DE3), Ni-NTA, tags removed by enterokinase

Columns and labels:
Experiment in all cases: purified protein
Settings in all cases: 40°C, pH 5.6, 50 mM sodium acetate
purified protein [1] = substrate: O=[N+]([O-])c1ccc(O[C@@H]2O[C@H](CO)[C@@H](O)[C@H](O)[C@H]2O)cc1
purified protein [2] = substrate: O=[N+]([O-])c1ccc(O[C@@H]2O[C@H](CO)[C@@H](O[C@@H]3O[C@H](CO)[C@@H](O)[C@H](O)[C@H]3O)[C@H](O)[C@H]2O)cc1; format: biochemical, uncultured bacterium SRF2
purified protein [3] = substrate: O=[N+]([O-])c1ccc(O[C@@H]2O[C@H](CO)[C@@H](O[C@@H]3O[C@H](CO)[C@@H](O)[C@H](O)[C@H]3O)[C@H](O)[C@H]2O)cc1; format: biochemical, uncultured bacterium LAB20
purified protein [4] = substrate: O=[N+]([O-])c1ccc(O[C@@H]2O[C@H](CO)[C@@H](O[C@@H]3O[C@H](CO)[C@@H](O)[C@H](O)[C@H]3O)[C@H](O)[C@H]2O)cc1; format: biochemical, uncultured bacterium LAB25

Protein	Km (purified protein [1]) [mM]	kcat (purified protein [1]) [s⁻¹]	kcat/Km (purified protein [1]) [M⁻¹ s⁻¹]	Km (purified protein [2]) [mM]	kcat (purified protein [2]) [s⁻¹]	kcat/Km (purified protein [2]) [M⁻¹ s⁻¹]	Km (purified protein [3]) [mM]	kcat (purified protein [3]) [s⁻¹]	kcat/Km (purified protein [3]) [M⁻¹ s⁻¹]	Km (purified protein [4]) [mM]	kcat (purified protein [4]) [s⁻¹]	kcat/Km (purified protein [4]) [M⁻¹ s⁻¹]
B1	1.73 ± 0.004	0.27	159	0.48 ± 0.072	0.11 ± 0.22	232						
B2	0.03 ± 0.003	0.88	29500				1.47 ± 0.13	0.12 ± 0.2	82.7			
B3	0.45 ± 0.06	0.41	920							0.39 ± 0.03	0.17 ± 0.36	438
B4	0.034 ± 0.003	0.37	10800	0.48 ± 0.054	0.19 ± 0.36	416						
